Target: pertussis toxin holotoxin (Bordetella pertussis, UniProt P04977 35-269; P04978 31-226; P04979 32-227; P0A3R5 43-152; P04981 36-133)
Experiment: cell-based or functional assay

B1: 1B7 Fab (Fab)
chain: DIQMTQSPALMSASPGEKVTMTCSASSSVSFMYWYQQKPRSSPKPWIYLTSNLPSGVPARFSGSGSGTSYSLTISSMEAEDAATYYCQQWSSHPPTFGSGTKLEIKRGGGGSGGGGSGGGGSGGGGSEVQLQQSGSELVRPGASVKLSCKASGYKFTSYWMHWVKQRPGQGLEWIGNIFPGSGSTNYDEKFNSKATLTVDTSSNTAYMQLSSLTSEDSAVYYCTRWLSGAYFDYWGQGTTLTVSSASGA
  In Vitro Neutralization (nM), minimum protective concentration, CHO clustering assay: 42 nM
